Legend:
[1] = Solution stability of the 111In-labeled conjugate in ascorbic acid buffer, RCP by HPLC (Method 3); format: physicochemical; conditions: for RCP (radiochemical purity): 0.1 M ascorbic acid buffer pH 6.0
Method: The integrity of a radiopharmaceutical is measured by the radiochemical purity (RCP) of the radiolabeled compound using ITLC or more preferably HPLC. The advantage of using HPLC is that radio-impurities caused by radiolytic degradation can be separated from the radiopharmaceutical under optimized chromatographic conditions. […] The radiopharmaceutical compositions of this invention are effective in maintaining the long-term stability of samples that have been frozen, thawed, and re-tested up to 5 days post-labeling. The initial RCP of a radiopharmaceutical is largely dependent on radiolabeling conditions such as pH, heating temperature and time. Once a radiopharmaceutical is prepared in high yield, the ability of an antioxidant to stabilize a radiopharmaceutical composition is measured by the RCP change over a certain period of time. The integrity of a radiopharmaceutical is measured by the radiochemical purity (RCP) of the radiolabeled compound using ITLC or more preferably HPLC. The advantage of using HPLC is that radio-impurities caused by radiolytic degradation can be separated from the radiopharmaceutical under optimized chromatographic conditions. […] The radiopharmaceutical compositions of this invention are effective in maintaining the long-term stability of samples that have been frozen, thawed, and re-tested periodically for 5 days. The initial RCP of a radiopharmaceutical is largely dependent on radiolabeling conditions such as pH, heating temperature and time. Once a radiopharmaceutical is prepared in high yield, the stability of the radiopharmaceutical composition is measured by the RCP change of the radiopharmaceutical over a certain period of time. HPLC method 3 used a HP-1100 HPLC system with a UV/visible detector (k=220 nm), an IN-US radio-detector, and a Zorbax C18 column (4.6 mm×250 mm, 80 A pore size). […] After cooling to room temperature, a sample of the resulting solution was then analyzed by HPLC (Method 3, injection volume=10 μL). […] Samples were analyzed at t 0 (RCP 98.2%) and 24 h (RCP=97.6%). […]

[2] = Solution stability of the 90Y-labeled conjugate in ascorbic acid buffer, RCP by HPLC (Method 1); format: physicochemical; conditions: for RCP (radiochemical purity): 0.1 M ascorbic acid buffer pH 5.0
Method: (§1) The integrity of a radiopharmaceutical is measured by the radiochemical purity (RCP) of the radiolabeled compound using ITLC or more preferably HPLC. The advantage of using HPLC is that radio-impurities caused by radiolytic degradation can be separated from the radiopharmaceutical under optimized chromatographic conditions. […] The radiopharmaceutical compositions of this invention are effective in maintaining the long-term stability of samples that have been frozen, thawed, and re-tested up to 5 days post-labeling.
(§2) The initial RCP of a radiopharmaceutical is largely dependent on radiolabeling conditions such as pH, heating temperature and time. Once a radiopharmaceutical is prepared in high yield, the ability of an antioxidant to stabilize a radiopharmaceutical composition is measured by the RCP change over a certain period of time.
as §1, with “periodically for” for “up to”, “days.” for “days post-labeling.”
as §2, with “stability” for “ability”, “the” for “an antioxidant to stabilize a”, “change of the radiopharmaceutical” for “change”
Analytical Methods. HPLC method 1 used a HP-1100 HPLC system with a UV/visible detector (Δ=220 nm), an IN-US radio-detector, and a Zorbax C18 column (4.6 mm×250 mm, 80 A pore size). The flow rate was 1 mL/min with the mobile phase starting with 92% solvent A (0.025 M ammonium acetate buffer, pH 6.8) and 8% solvent B (acetonitrile) to 90% solvent A and […] at 18 min, followed by an isocratic wash using 40% of solvent A and 60% solvent B from 19 to 25 min.
(2S)-2-[({2,6-Dimethyl-4-[3-(N-{2-[3-sulfo-2-(3-sulfo-2-{2-[1,4,7,10-tetraaza-4,7,10-tris(carboxymethyl) cyclododecyl]acetylamino}propyl)propyl]ethyl}carbamoyl)-propoxy]phenyl}sulfonyl)amino]-3-({7-[(imidazol-2-ylamino)methyl]-1-methyl-4-oxo(3-hydroquinolyl)}-carbonylamino)propanoic acid trifluoroacetate was prepared as disclosed in U.S. patent application Ser. No. 09/456,300 and was subsequently dissolved in 0.1 M AA buffer (pH 5.0) to give a concentration of 100 μg/mL. The resulting solution was immediately degassed under vacuum for another 1-2 min. To a clean sealed 5 mL vial was added 5.0 mL of 0.1 M ascorbic acid buffer (pH 5.0) containing 500 μg of (2S)-2-[({2,6-Dimethyl-4-[3-(N-{2-[3-sulfo-2-(3-sulfo-2-{2-[1,4,7,10-tetraaza-4,7,10-tris(carboxymethyl) cyclododecyl]acetylamino}propyl) propyl]ethyl}carbamoyl)propoxy]phenyl}sulfonyl)amino]-3-({7-[(imidazol-2-ylamino)methyl]-1-methyl-4-oxo(3-hydroquinolyl)}carbonylamino)propanoic acid trifluoroacetate. The solution was degassed again under vacuum. Upon addition of ˜75 μL of ^90YCl3 solution (101.5 mCi) in 0.05 N HCl, the reaction mixture was heated at 95° C. for 30 min. After cooling to room temperature, a sample of the resulting solution was diluted 50-fold with saline containing sodium gentisate (10 mg/mL), and was then analyzed by HPLC (Method 1, injection volume 5 μL). The resulting mixture was then kept in a dry-ice box (−78° C.) for 5 days. Samples were analyzed at t=0 (RCP=98.5%), 24 h (RCP=98.4%), 68 h (RCP=98.0%), and 120 h (RCP=98.8%). The retention time was 14.8 min.

[3] = 5 mL AA solution containing 100 mg AA, pH=5.0

Substance	remains stable in solution (time) ([1]; 0.1 M ascorbic acid buffer pH 6.0, room temperature)	RCP (radiochemical purity) ([1]; 24 h, kept at room temperature)	RCP (radiochemical purity) ([1]; t 0, 2.8 mCi 111In)	RCP while stable over at least 5 days [2, 3]	remains stable (time) [2, 3]	RCP (radiochemical purity) ([2]; 24 h, kept in dry-ice box (-78° C.))	RCP (radiochemical purity) ([2]; 68 h, kept in dry-ice box (-78° C.))	RCP (radiochemical purity) ([2]; 120 h, kept in dry-ice box (-78° C.))	RCP (radiochemical purity) ([2]; t=0, 100 mCi 90Y)
^111In-(2S)-2-[({2,6-Dimethyl-4-[3-(N-{2-[3-sulfo-2-(3-sulfo-2-{2-[1,4,7,10-tetraaza-4,7,10-tris(carboxymethyl) cyclododecyl]acetylamino}--propyl)propyl]ethyl}carbamoyl)-propoxy]phenyl}sulfonyl)amino]-3-({7-[(imidazol-2-ylamino)methyl]-1-methyl-4-oxo(3-hydroquinolyl)}-carbonylamino)propanoic acid trifluoroacetate [Example 3]	at least 24 hours	97.6%	98.2%	–	–	–	–	–	–
^90Y-(2S)-2-[({2,6-Dimethyl-4-[3-(N-{2-[3-sulfo-2-(3-sulfo-^2-{^2-[1,4,7,10-tetraaza-4,7,10-tris(carboxymethyl) cyclododecyl]acetylamino}--propyl)propyl]ethyl}carbamoyl)-propoxy]phenyl}sulfonyl)amino]-^3-({^7-[(imidazol-2-ylamino)methyl]-1-methyl-4-oxo(3-hydroquinolyl)}-carbonylamino)propanoic acid trifluoroacetate [Example 2]	–	–	–	> 96%	at least 5 days	98.4%	98.0%	98.8%	98.5%

— patent publication US6713042B2, “Ascorbic acid analogs for metalloradiopharmaceuticals” (Bristol-Myers Squibb Pharma Company, priority 2001, dated 2004)
